Assay results: US20260355310A1, “TREATMENT OF IGA NEPHROPATHY USING AN ENDOTHELIN RECEPTOR ANTAGONIST AND APRIL BINDING ANTIBODY” (CHINOOK THERAPEUTICS, INC., priority 2022, published 2026)

Columns and labels:
IgA nephropathy patients = details: DAPA-CKD subanalysis; Wheeler et al. 2021; cited from earlier work
[1] = Oxidation reduction potential; format: physicochemical
[2] = tested on: endothelin A (ETA) receptor; details: cited from earlier work
ETB receptor = details: Wu-Wong et al. 2002; cited from earlier work
[3] = tested on: patients with diabetic kidney disease (DKD); details: Heerspink et al. 2019; cited from earlier work
[4] = tested on: human B cell maturation antigen (BCMA) / human APRIL; test: Blocking of APRIL binding to BCMA
[5] = tested on: transmembrane activator and calcium modulator and cyclophilin ligand interactor (TACI) / human APRIL; test: Blocking of APRIL binding to TACI
BAFF = test: Binding to BAFF; details: BION-1301
healthy human volunteers = test: Immunoglobulin levels in healthy volunteers; format: in vivo
Source text: (§1) A humanized APRIL antagonistic monoclonal antibody (anti-APRIL antibody, as described herein) is in development for the treatment of IgAN, having undergone clinical trials in healthy volunteers (see clinicaltrials.gov NCT03945318). […] In addition, this blockade reduced Gd-IgAQ1 in healthy human volunteers. Consequently, it is expected that blockade of APRIL in patients with IgAN will lead to a reduction in levels of IgA, IgG, and IgM and corresponding reductions in gd-IgA1, auto-antibodies to gd-IgA1, immune complex deposition and renal damage.

[6] = tested on: healthy cynomolgus monkeys; test: Immunoglobulin levels in healthy cynomolgus monkeys; format: in vivo
Source text: as §1

patients with IgAN = test: Phase 1/2 clinical study in patients with IgAN, interim results; format: in vivo, human
Source text: BION-1301 has been studied in adults with relapsed or refractory multiple myeloma as well as healthy volunteers (HVs) and adults with IgAN. Since the initiation of the BION-1301 clinical program through 26 Jul. 2022, a total of 153 adults have been enrolled in 5 clinical studies. […] Gd-IgA1, and proteinuria (as measured by areduction in UPCR).
BION-1301 has been studied in adults with relapsed or refractory multiple myeloma as well as healthy volunteers (HVs) and adults with IgAN. Since the initiation of the BION-1301 clinical program through 26 Jul. 2022, a total of 153 adults have been enrolled in 5 clinical studies.

[7] = tested on: human B cell maturation antigen (BCMA) / human APRIL; details: receptors on lymphocytes; Guadagnoli 2011; cited from earlier work
[8] = tested on: transmembrane activator and calcium modulator and cyclophilin ligand interactor (TACI) / human APRIL; details: receptors on lymphocytes; Guadagnoli 2011; cited from earlier work
[9] = IV 450 mg Q2W, patients with IgAN, interim results
[10] = SC 600 mg Q2W after at least 24 weeks of IV administration

CCOc1ccc(Cc2cc([C@@H]3O[C@H](CO)[C@@H](O)[C@H](O)[C@H]3O)ccc2Cl)cc1 [dapagliflozin]
safety and efficacy as addition to standard of care in IgA nephropathy (IgA nephropathy patients): may be a safe and effective addition to current standard of care in IgA nephropathy

CCCCN(CCCC)C(=O)CN1C[C@H](c2ccc3c(c2)OCO3)[C@@H](C(=O)O)[C@@H]1c1ccc(OC)cc1 [Atrasentan, (2R,3R,4S)-4-(1,3-benzodioxol-5-yl)-1-[2-(dibutylamino)-2-oxoethyl]-2-(4-methoxyphenyl)pyrrolidine-3-carboxylic acid]
oxidation reduction potential [1]: about 900 mV
selectivity for ETA relative to ETB ([2]; ETA inhibitor, ETA relative to ETB, literature): about 1,860 times
ETA selectivity ([2]; ETA relative to ETB, Wu-Wong et al. 2002): ~ 1800 x
Ki ([2]; Wu-Wong et al. 2002): ~0.034 nM
Ki (ETB receptor): ~63 nM
risk of renal events (doubling of serum creatinine or end-stage kidney disease) [3]: significantly reducing the risk of renal events

B1: BION-1301: IgG4 humanized monoclonal antibody having CAS Registry No. 2642175-46-8; SEQ ID NO: 28 for the heavy chain and SEQ ID NO: 30 for the light chain (antibody, chains of the INN, looked up, V domains shown)
VH: QVQLVQSGAEVKKPGASVKVSCKASGYTFTDYTIHWVRQATGQGLEWMGWIYPLRGSINYAQKFQGRVTMTADKSISTVYMELSSLRSEDTAVYFCARHGAYYSNAFDYWGQGTLVTVSS
VL: EIVMTQSPATLSVSPGERATLSCRASESVDNDGIRFLHWYQQKPGQAPRLLIYRASTRATGIPARFSGSGSRTEFTLTISSLQSEDFAVYYCQQSNKDPYTFGGGTKVEIK
blocks binding of human APRIL to BCMA [4]: blocks the binding
blocks binding of human APRIL to TACI [5]: blocks the binding
binding to BAFF (BAFF): does not bind BAFF
Gd-IgA1 (healthy human volunteers; healthy human volunteers): reduced
levels of IgA (healthy human volunteers; healthy volunteers): significantly reduce the levels of IgA
IgA [6]: significantly lower
IgM [6]: significantly lower
Gd-IgA1 (patients with IgAN; [9]): sustained reductions
free (unbound) APRIL (patients with IgAN; [9]): sustained reductions
proteinuria (as measured by reduction in UPCR) (patients with IgAN; [9]): sustained reductions
tolerability (patients with IgAN; [9]): well-tolerated
BION-1301 exposures after transition to SC dosing (patients with IgAN; [10]): maintained similar BION-1301 exposures
biomarker responses after transition to SC dosing (patients with IgAN; [10]): maintained similar BION-1301 exposures, biomarker responses
proteinuria reductions after transition to SC dosing (patients with IgAN; [10]): maintained similar BION-1301 exposures, biomarker responses and proteinuria reductions
serum BION-1301 concentrations (patients with IgAN; following IV infusion, patients with IgAN vs healthy volunteers at same dose and schedule): appeared comparable to those observed in healthy volunteers at the same dose and schedule
24-hour UPCR (patients with IgAN; patients treated with BION-1301, on average): reduction in 24-hour UPCR which was evident by 3 months and continue to decline beyond 1 year
blocks interaction of APRIL with BCMA [7]: effectively blocks
blocks interaction of APRIL with TACI [8]: effectively blocks
